Source: paper PMC11653685, “Crystal structure of Alzheimer's disease phospholipase D3 provides a molecular basis for understanding its normal and pathological functions” (The Febs Journal, 2024)

Target: the molecule itself
Experiment: crystal structure; hPLD3 luminal domain with the hexa-His tag left on; crystals grown at 20 °C in 0.17 M ammonium sulfate, 15% glycerol, 25% PEG 4000; 2.3 Å; two molecules in the asymmetric unit

B1: human phospholipase D3 (hPLD3) luminal domain, residues N71-L490 (domain or fragment, UniProt Q8IV08 71-490, looked up)
chain: NQRPAPCYDPCEAVLVESIPEGLDFPNASTGNPSTSQAWLGLLAGAHSSLDIASFYWTLTNNDTHTQEPSAQQGEEVLRQLQTLAPKGVNVRIAVSKPSGPQPQADLQALLQSGAQVRMVDMQKLTHGVLHTKFWVVDQTHFYLGSANMDWRSLTQVKELGVVMYNCSCLARDLTKIFEAYWFLGQAGSSIPSTWPRFYDTRYNQETPMEICLNGTPALAYLASAPPPLCPSGRTPDLKALLNVVDNARSFIYVAVMNYLPTLEFSHPHRFWPAIDDGLRRATYERGVKVRLLISCWGHSEPSMRAFLLSLAALRDNHTHSDIQVKLFVVPADEAQARIPYARVNHNKYMVTERATYIGTSNWSGNYFTETAGTSLLVTQNGRGGLRSQLEAIFLRDWDSPYSHDLDTSADSVGNACRLL
modifications: N-linked GlcNAc at N236 and N284 (seen in the electron density)
notes: also called soluble form of the enzyme; source: Expi293 GnTI- cells, transfected, secreted; purified from culture supernatant (HisTrap excel, Superdex 200 SEC); not shown: His6, N-terminal, kept
  stoichiometry N: 2
